The values below come from US20210206848A1 (Stanford University, published 2021).

In experiment [1] the target is T1, extracellular region of human PD-1 (human).
T1 construct: also called hPD-1
The experiment can be described thus: SPR. A general note: SPR reads the build-up and loss of mass on a sensor chip optically.

For experiment [2], the target named is T2, extracellular region of human CD45 (human, UniProt P08575 26-577).
T2 construct: also called hCD45
T2 sequence: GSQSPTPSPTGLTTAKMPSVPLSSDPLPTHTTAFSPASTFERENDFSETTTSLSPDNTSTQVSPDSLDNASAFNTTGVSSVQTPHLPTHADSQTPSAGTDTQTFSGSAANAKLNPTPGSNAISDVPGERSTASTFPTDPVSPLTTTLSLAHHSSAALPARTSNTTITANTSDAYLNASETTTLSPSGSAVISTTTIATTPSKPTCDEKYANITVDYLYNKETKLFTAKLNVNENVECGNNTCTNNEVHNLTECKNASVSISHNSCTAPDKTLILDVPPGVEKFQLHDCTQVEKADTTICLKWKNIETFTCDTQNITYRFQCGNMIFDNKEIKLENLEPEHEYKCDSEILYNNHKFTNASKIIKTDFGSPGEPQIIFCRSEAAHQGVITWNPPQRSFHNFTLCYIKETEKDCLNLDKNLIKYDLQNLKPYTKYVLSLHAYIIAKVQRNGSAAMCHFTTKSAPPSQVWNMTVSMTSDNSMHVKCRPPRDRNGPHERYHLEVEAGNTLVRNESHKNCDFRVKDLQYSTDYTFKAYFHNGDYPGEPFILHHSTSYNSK
The experiment in a line: SPR.

Experiment [3] deals with T1, extracellular region of human PD-1. The experiment can be described thus: SPR; target PD-1 extracellular region.
Experiment [4] addresses T2, extracellular region of human CD45. The experiment in a line: SPR; target CD45 extracellular region.

T1 sequence (chain, as listed by the source limits assumed): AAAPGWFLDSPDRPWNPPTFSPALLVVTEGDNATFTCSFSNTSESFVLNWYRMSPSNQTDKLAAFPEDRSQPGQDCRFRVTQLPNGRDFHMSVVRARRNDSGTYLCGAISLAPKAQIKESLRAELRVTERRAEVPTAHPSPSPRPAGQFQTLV

B1: CD45-PD1(VHH) (bispecific antibody)
chain: DVQLVESGGGVVQPGGSLRLSCAASGSIASIHAMGWFRQAPGKEREFVAVITWSGGITYYADSVKGRFTISRDNSKNTVYLQMNSLRPEDTALYYCAGDKHQSSWYDYWGQGTLVTVSSGGGSLEVLFQGPGSGSDILLTQSPATLSLSPGERATLSCRASQNIGTSIQWYQQKPGQAPRLLIRSSSESISGISSRFSGSGSGTDFTLTISSLEPEDFAVYYCQQSNTWPFTFGQGTKLEIKGGSTRSSSSGGGGSGGGGQVQLVESGAEVKKPGASVKVSCKASGYTFTNYIIHWVKQEPGQGLEWIGYFNPYNHGTKYNEKFKGRATLTADKSISTAYMELSSLRSEDTAVYYCARSGPYAWFDTWGQGTTVTVSSAAAHHHHHHHH
notes: Anti-CD45 scFv fused to an anti-human PD-1 nanobody (VHH, from US20170137517A1); also called αCD45-PD1(VHH); 2nd generation anti-human RIPR-PD1
What is called Kd is the equilibrium constant for the complex coming apart. Turning to B1, the Kd in experiment [1] is roughly 5 nM; in experiment [2], roughly 700 nM.

B2: CD45-PD1(Nivo)-Stabilized (bispecific antibody)
chain: QVQLVESGAEVKKPGASVKVSCKASGYTFTNYIIHWVKQEPGQGLEWIGYFNPYNHGTKYNEKFKGRATLTADKSISTAYMELSSLTSEDTAVYYCARSGPYAWFDTWGQGTTVTVSSGGGGSEIVLTQSPATLSLSPGERATLSCRASQSVSSYLAWYQQKPGQAPRLLIYDASNRATGIPARFSGSGSGTDFTLTISSLEPEDFAVYYCQQSSNWPRTFGQTKVEIKRRADAAAAGGGGSGGGGSGGGGSGGGGTGGGGSQVQLVESGGGVVQPGRSLRLDCKASGITFSNSGMHWVRQAPGKGLEWVAVIWYDGSKRYYADSVKGRFTISRDNSKNTLFLQMNSLTAEDTAVYYCATNDDYWGQGTLVTVSSGGGGSDILLTQSPATLSLSPGERATLSCRASQNIGTSIQWYQQKPGQAPRLLIRSSSESISGISSRFSGSGSGTDFTLTISSLEPEDFAVYYCQQSNTWPFTFGQGTKLEIKAAAHHHHHHHH
notes: also called αCD45-PD1(Nivo); αCD45-PD1 (Nivo)
B2: the Kd in experiment [3] was roughly 6 nM; in experiment [4] it was roughly 300 nM.
